What all share (type): cell-based
The test system of one test is M12 B lymphoma cells. As to the kind of experiment: Endogenous IL-4 production by transfected M12 B lymphoma cells (ELISA). To be noted: M12 cells cotransfected with NFATp and c-Maf; supernatants at 72 hours. On the procedure: FIG. 10 is a bar graph depicting the level of IL-4 (in pg/ml) in the supernatants of M12 B lymphoma cells transiently cotransfected with expression plasmids for NFATp, c-Maf and a pCI vector control (top bar) or expression plasmids for NFATp, c-Maf and NIP45 (bottom bar).
M12 cells were transiently transfected by electroporation as previously described (Ho, I. C. et al. (1996) Cell 85:973-983) by incubating 3×10^6 cells in 0.4 ml of PBS with 5 μg of each plasmid for 10 minutes at room temperature prior to electroporation at 975 μF, 280 V. Levels of IL-4 in the supernatants harvested 72 hours later were measured by a commercially available IL-4 ELISA (Pharmingen), performed according to the manufacturer's instructions except with modification as described (Ho, I. C. et al. (1996) supra). Four independent sets of transient transfections were done and assayed for secretion of IL-4 into the culture supernatant. For each set of transfections, inclusion of NIP45 led to a dramatic increase in IL-4 production.
A general note: In an ELISA, binding on a coated surface is turned into a signal by an enzyme label.

For another test, the system named is IL-4 promoter. As to the kind of experiment: IL-4-CAT reporter assay in HepG2 cells. Particulars: NIP45 together with NFATp and c-Maf. On the procedure:
FIG. 9 depicts CAT assay results (left) and a bar graph quantitating the relative fold induction of CAT activity (right) in HepG2 cells transfected with an IL-4-CAT reporter gene, construct (extending to −732 bp of the IL-4 promoter) and combinations of NFATp, NIP45 and/or c-Maf expression constructs, as indicated.
Although a reporter construct containing multiple copies of the NFAT binding site provides a sensitive method for measuring transactivation by NFAT and NIP45, it was determined if NIP45 was functional in the context of a native NFAT-dependent promoter. IL-4 expression is highly tissue specific and restricted to the Th2 subset of T cells and to mast cells. […] Thus, the IL-4 promoter is not active in the HepG2 cell line but can be activated by the introduction of NFATp and c-maf. In cotransfection experiments carried out as described above, HepG2 cells were transfected with an IL-4-CAT reporter construct (extending to −732 bp of the IL-4 promoter) and expression vectors or controls for NIP45, NFATp and c-Maf. The controls for NIP45 was a frame shift mutant at amino acid 13. Controls for NFATp and c-Maf were the empty expression vectors pREP4 and pMEX respectively (Ho, I. C. et al. (1996) Cell 85:973-983). The results of these experiments are shown in FIG. 9 (representative CAT assays and bar graphs are depicted as in FIG. 8).
(In general: In a reporter assay the amount or activity of a reporter protein is the signal.)

For a further test, the system named is 3X NFAT-CAT reporter. As to the kind of experiment: 3X NFAT-CAT reporter assay in HepG2 cells. From the text:
FIG. 8 depicts CAT assay results (left) and a bar graph quantitating the relative fold induction of CAT activity (right) in HepG2 cells transfected with a 3X NFAT-CAT reporter gene construct (containing three NFAT binding sites) and either a control expression plasmid or an NFAT family expression plasmid (NFATp, NFATc, NFAT3 or NFAT4), alone (−) or in combination with a NIP45 expression plasmid (^+).
To test for a functional role of NIP45 in NFAT-driven transcription, NIP45 was expressed at high levels in HepG2 cells. […] HepG2 cells were transfected with a 3X NFAT-CAT reporter from the IL-2 gene (Venkataraman, L. et al. (1994) Immunity 1:189-196) and control or expression plasmids for a NIP45 and NFAT family members (NFATp, NFATc, NFAT3, NFAT4). HepG2 cells were transfected by the DEAE-Dextran method as described in Hoey, T. et al. (1995) supra, and CAT assays were performed according to standard methodologies. One representative assay for each combination is shown adjacent to a bar graph representing relative CAT activity for each group. Fold induction was calculated by normalizing the CAT activity of cells transfected with the CAT reporter and each parental expression vector to one. Values represent the relative level of CAT expression above this control transfection. All transfections were performed at least three times with one representative autoradiograph shown.

B1: NIP45: 45 Kd NFAT interacting protein of 412 amino acids (SEQ ID NO: 2), expressed from a transfected expression plasmid (protein, listed as Mus musculus)
chain: MAEPLRGRGPRSRGGRGARRARGARGRCPRARQSPARLIPDTVLVDLVSDSDEEVLEVADPVEVPVARLPAPAKPEQDSDSDSEGAAEGPAGAPRTLVRRRRRRLLDPGEAPVVPVYSGKVQSSLNLIPDNSSLLKLCPSEPEDEADLTNSGSSPSEDDALPSGSPWRKKLRKKCEKEEKKMEEFPDQDISPLPQPSSRNKSRKHTEALQKLREVNKRLQDLRSCLSPKQHQSPALQSTDDEVVLVEGPVLPQSSRLFTLKIRCRADLVRLPVRMSEPLQNVVDHMANHLGVSPNRILLLFGESELSPTATPSTLKLGVADIIDCVVLASSSEATETSQELRLRVQGKEKHQMLEISLSPDSPLKVLMSHYEEAMGLSGHKLSFFFDGTKLSGKELPADLGLESGDLIEVWG
B1: in the test with M12 B lymphoma cells, the “endogenous IL-4 production relative to cells that did not receive NIP45” value is given as 50-200 fold. Besides, the “increase in activity of the IL-4 promoter relative to NFATp and c-Maf alone” value in the test with IL-4 promoter worked out at 9 fold. Moreover, in the test on 3X NFAT-CAT reporter (NIP45 cotransfected with NFATp), the “increase in CAT activity over vector alone” value is 25-30 fold and the “increase in CAT activity relative to transfection with NFATp alone” value is 4-5 fold. The “CAT expression from 3X NFAT-CAT reporter” value with 3X NFAT-CAT reporter (NIP45 transfected alone) is reported as “did not lead to a significant increase”.
